Target: T1, eIF5B (residues 396–1002) (S. cerevisiae, UniProt P39730 396-1002)
T1 construct: translation initiation factor eIF5B (GTPase), Saccharomyces cerevisiae, residues 396-1002; also called eIF5B:GTP; eIF5B-GDP; source: prepared and characterized as described [11]
T1 sequence (looked up): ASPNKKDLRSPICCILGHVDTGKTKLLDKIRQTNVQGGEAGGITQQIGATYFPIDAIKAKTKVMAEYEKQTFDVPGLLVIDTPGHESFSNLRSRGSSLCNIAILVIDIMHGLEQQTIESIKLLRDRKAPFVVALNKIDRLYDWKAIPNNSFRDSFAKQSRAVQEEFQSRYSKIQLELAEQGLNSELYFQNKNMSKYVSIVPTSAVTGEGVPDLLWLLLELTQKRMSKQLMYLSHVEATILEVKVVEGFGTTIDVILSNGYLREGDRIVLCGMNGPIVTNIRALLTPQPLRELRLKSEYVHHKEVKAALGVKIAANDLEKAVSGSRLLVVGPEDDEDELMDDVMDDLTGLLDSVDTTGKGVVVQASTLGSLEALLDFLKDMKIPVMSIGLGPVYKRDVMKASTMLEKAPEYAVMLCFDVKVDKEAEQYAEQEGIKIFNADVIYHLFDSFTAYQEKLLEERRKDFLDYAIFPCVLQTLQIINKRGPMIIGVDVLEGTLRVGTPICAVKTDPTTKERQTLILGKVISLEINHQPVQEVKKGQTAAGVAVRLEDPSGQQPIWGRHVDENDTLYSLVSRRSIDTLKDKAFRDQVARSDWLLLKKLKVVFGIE
Assay: cryo-EM structure; 48S PICs mixed with eIF5B:GTP and 60S, frozen ~40 s after mixing; 30 mM HEPES-KOH pH 7.5, 100 mM KOAc, 10 mM Mg(OAc)2, 1 mM GTP:Mg2+; grids at 21 °C; uL16 within the 60S subunit
Details: both partners purified

binding result: binds
B1: ribosomal protein uL16 (natural protein, S. cerevisiae)
chain: RRPARCYRYQKNKPYPKSRYNRAVPDSKIRIYDLGKKKATVDEFPLCVHLVSNELEQLSSEALEAARICANKYMTTVSGRDAFHLRVRVHPFHVLRINKMLSCAGADRLQQGMRGAWGKPHGLAARVDIGQIIFSVRTKDSNKDVVVEGLRRARYKFPGQQKIILSKKWGFTNLDRPEYLKKREAGEVKDDGAFVKFLSKKGSLENNIREFPEYFA
notes: ribosomal protein uL16, component of the 60S large ribosomal subunit, Saccharomyces cerevisiae; Stood in the assay as a subunit of the whole 60S/80S ribosome, not as an isolated protein; source: in yeast Saccharomyces cerevisiae 60S ribosomal subunits, prepared as described [11]

From PMC7538418, “Structural basis for the transition from translation initiation to elongation by an 80S-eIF5B complex” (Nature Communications, 2020)
